In data set [1] the test system is T1, RhCas12f1 (ME-A.1) (Ruminiclostridium herbifermentans).
T1 sequence: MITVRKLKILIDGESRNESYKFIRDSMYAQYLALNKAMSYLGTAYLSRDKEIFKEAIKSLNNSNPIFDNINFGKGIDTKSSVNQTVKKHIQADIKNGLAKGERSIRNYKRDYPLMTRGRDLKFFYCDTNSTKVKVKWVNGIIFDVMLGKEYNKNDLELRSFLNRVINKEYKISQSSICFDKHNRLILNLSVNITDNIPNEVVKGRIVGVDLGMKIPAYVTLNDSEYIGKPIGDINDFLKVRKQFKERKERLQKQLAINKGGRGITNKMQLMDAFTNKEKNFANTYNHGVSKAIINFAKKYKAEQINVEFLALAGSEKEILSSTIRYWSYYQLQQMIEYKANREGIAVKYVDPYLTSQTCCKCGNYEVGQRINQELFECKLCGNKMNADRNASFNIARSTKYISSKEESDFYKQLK
The data set can be described thus: cell_activity.

For data set [2], the system named is T2, RhCas12f1-I264R I264R (Ruminiclostridium herbifermentans).
T2 sequence: T1 sequence with I264R
The data set can be described thus: cell_activity. Conditions: PAM CCCA.

In data set [3] the test system is T3, RhCas12f1-L270R (enRhCas12f1) (Ruminiclostridium herbifermentans).
T3 sequence: T1 sequence with L270R
The data set can be described thus: cell_activity. Conditions: PAM CCCA.

Data set [4] concerns T4, RhCas12f1-Y125R Y125R (Ruminiclostridium herbifermentans).
T4 sequence: T1 sequence with Y125R
The data set can be described thus: cell_activity. The following applies: PAM CCCA.

Data set [5] deals with T5, RhCas12f1-A273R A273R (Ruminiclostridium herbifermentans).
T5 sequence: T1 sequence with A273R
The data set can be described thus: cell_activity. Conditions: PAM CCCA.

The subject of data set [6] is T6, RhCas12f1-T131R T131R (Ruminiclostridium herbifermentans).
T6 sequence: T1 sequence with T131R
The data set can be described thus: cell_activity. The following applies: PAM CCCA.

For data set [7], the system named is T7, RhCas12f1-S130R S130R (Ruminiclostridium herbifermentans).
T7 sequence: T1 sequence with S130R
The data set can be described thus: cell_activity. Conditions: PAM CCCA.

For data set [8], the system named is T8, RhCas12f1-A56R A56R (Ruminiclostridium herbifermentans).
T8 sequence: T1 sequence with A56R
The data set can be described thus: cell_activity. The following applies: PAM CCCA.

The subject of data set [9] is T9, OsCas12f1 (ME-B.3) (Oscillibacter sp.).
T9 sequence: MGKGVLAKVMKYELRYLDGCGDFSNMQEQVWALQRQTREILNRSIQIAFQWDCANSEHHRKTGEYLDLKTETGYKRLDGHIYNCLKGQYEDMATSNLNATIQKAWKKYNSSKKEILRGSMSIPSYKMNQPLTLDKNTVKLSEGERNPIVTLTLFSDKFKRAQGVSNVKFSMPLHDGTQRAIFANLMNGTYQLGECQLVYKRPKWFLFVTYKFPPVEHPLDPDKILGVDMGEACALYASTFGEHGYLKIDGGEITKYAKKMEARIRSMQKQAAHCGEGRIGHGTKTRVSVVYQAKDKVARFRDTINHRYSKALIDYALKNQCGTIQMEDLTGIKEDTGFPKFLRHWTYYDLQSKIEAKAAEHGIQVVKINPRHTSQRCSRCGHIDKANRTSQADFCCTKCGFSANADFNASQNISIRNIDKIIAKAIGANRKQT
The data set can be described thus: cell_activity.

Data set [10] deals with the molecule itself. As to the kind of experiment: size-exclusion chromatography (Superdex 200 Increase 10/300) of Cas12f1 RNP assembled with sgRNA; self-association (homodimer). A general note: In gel filtration, larger molecules generally elute earlier.

Positions count from the first letter of the chain named.

In turn, “ACGGUUGAUUUAGCAACCGAAGUCUGAGGGCAUGUAGAAAAAAGUAUAGGUAUAUACCAACAUACUUGCAUUGCCACUCGGAAAGGGUUAACCUUGGUCAUUGUGUUACCGACCAAGCAUUCCAGAAAUGGAAUGUAAAUGGGUCUUCGAGAAGACCUUUUUAUUUUUUU / CCCACCATTACAGTAGGAGCATAC / GTATGCTCCTACTGTAATGGTGGG” displayed an activity in data set [1] (non-targeting spacer) of 0.62 % GFP+.

As to “ACGGUUGAUUUAGCAACCGAAGUCUGAGGGCAUGUAGAAAAAAGUAUAGGUAUAUACCAACAUACUUGCAUUGCCACUCGGAAAGGGUUAACCUUGGUCAUUGUGUUACCGACCAAGCAUUCCAGAAAUGGAAUGUAAAUCCAUUACAGUAGGAGCAUACUUUUAUUUUUUU / CCCACCATTACAGTAGGAGCATAC / GTATGCTCCTACTGTAATGGTGGG”, the activity turned out to be 75 % GFP+ in [2]; 61.5 % GFP+ in data set [1] (PAM CCCA, HEK293T); 73.8 % GFP+ in data set [3]; 73.3 % GFP+ in data set [4]; 75.3 % GFP+ in [5]; 77.2 % GFP+ in [6]. Further, the activity is 76.1 % GFP+ in data set [7] and 73 % GFP+ in [8].

Consider “AGGGCCGACUUCCCGGCCCAAAAUCGAGACAGUAGCCGUAAAACUUUGAGUUUCAGAGUGGGCGACACACUCGAAAAGGUUAAGAUAUGCACAUAGUAAUCCGUGCAUGAGCCGCGAAAGCGGCUUGAAGGCCAUUACAGUAGGAGCAUACUUUUAUUUUUUU / TTTCCCATTACAGTAGGAGCATACGGG / CCCGTATGCTCCTACTGTAATGGGAAA”, for which the binding signal (fold vs WT scaffold) in [9] (PAM TTTC) stood at 1.56.

Consider “AGGGACGACUUCCCGUCCCAAAAUCGAGACAGUAGCCGUAAAACUUUGAGUUUCAGAGUGGGCGACACACUCGAAAAGGUUAAGAUAUGCACAUAGUAAUCCGUGCAUGAGCCGCGAAAGCGGCUUGAAGGGGGUCUUCGAGAAGACCUUUUUAUUUUUUU / TTTCCCATTACAGTAGGAGCATACGGG / CCCGTATGCTCCTACTGTAATGGGAAA”, for which the activity in [9] (non-targeting spacer) stood at 0.55 % GFP+.

B1: OsCas12f1 (ME-B.3) (enzyme)
chain: T9 sequence
notes: Purified recombinant protein used in size-exclusion chromatography; Entered as the single polypeptide; also called WTOsCas12f1; Cas12f1 from Oscillibacter sp; not shown: C-terminal 6xHis tag
For B1, the binding result in data set [10] is recorded as “binds”.

B2: RhCas12f1 (ME-A.1) (enzyme)
chain: T1 sequence
notes: Purified recombinant protein used in size-exclusion chromatography; Entered as the single polypeptide; also called WTRhCas12f1; Cas12f1 from Ruminiclostridium herbifermentans; not shown: C-terminal 6xHis tag
In the case of B2, in [10], the binding result is recorded as “binds”.

The values above are taken from patent US20240011005A1 (HUIDAGENE THERAPEUTICS, published 2024).
